Data on one molecule can be found in patent publication US12679888B2, “IL-18 binding protein (IL-18BP) and antibodies for treating inflammatory diseases” (AB2 BIO SA, priority 2015, dated 2026).

Data set [1] has as its target T1, IL-18 (Homo sapiens, UniProt Q14116).
T1 sequence (Q14116 37-193): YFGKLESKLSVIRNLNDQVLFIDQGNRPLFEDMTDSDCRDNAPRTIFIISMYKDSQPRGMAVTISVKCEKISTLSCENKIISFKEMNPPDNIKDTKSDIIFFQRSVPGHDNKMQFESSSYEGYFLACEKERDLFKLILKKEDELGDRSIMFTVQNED
The data set can be described thus: Dissociation constant (Kd) used for dose selection, human. It counts as binding. The procedure: No validated animal model has been described for this condition. In the collagen-induced arthritis murine model the active dose for r-hIL-18BP administered intraperitoneally (i.p.) was determined to be 1 mg/Kg body weight. […] Altogether the expected pharmacologically active dose for a “humanized mice” treated by s.c. route with r-hIL-18BP is round 4.85 mg/kg. […] Although the guidance was initially written for extrapolating animal doses to healthy volunteers, its principles can be applied also to patients. […] Those doses will be likely also ineffective in AoSD patients considering that blood levels of IL-18 in AoSD are higher than those reported in the two above mentioned conditions.

A further data set relates to C57BL/6J mice. The data set is described as follows: Four-day exacerbation/tobacco smoke mouse model (COPD exacerbation). Type of data set: in vivo. The procedure:
The aim of the study was to determine the effect of IL-18BP, administered at three dose levels, by the sub-cutaneous route, on Polyinosinic:polycytidylic acid-induced exacerbation of tobacco-smoke induced pulmonary inflammation, in C57BL/6J mice. High level of dexamethasone, dosed orally, was included in the study as a reference agent.
Mice received either vehicle (PBS) or IL-18BP. IL-18BP was given subcutaneously to 3 groups of animals respectively at 1, 3 or 10 mg/kg 2 h prior to the initial tobacco smoke exposure from Day 1 to Day 4. Mice received orally either vehicle or dexamethasone (10 mg/kg) 1 h prior to each twice daily exposure. Mice received by intranasal administration either the vehicle or Polyinosinic:polycytidylic acid (2 mg/kg) 2 h prior to the initial air or tobacco smoke exposure on Day 4 to induce lung inflammation exacerbation. Tobacco smoke exposure was performed during the morning and afternoon as follow: Day 1 for 15 min, Day 2 for 25 min, Day 3 for 30 min and Day 4 for 30 min.
Following the above treatments, animals were terminally anaesthetised on Day 5. After that, a blood sample was taken via the sub-clavian artery (plasma) and the animals were bronchoalveloar lavaged with 3×0.4 ml of PBS for further cellular and cytokine/mediator analysis. Bronchoalveolar lavage supernatants were stored at −80° C. for cytokine/mediator analysis. Cells recovered from the BALF were counted using the Sysmex cell counter.

Data set [2] has as its target T1, IL-18. The settings on record: cited from earlier work.
For data set [3], the target named is T1, IL-18. The data set is described as follows: KD calculation by titration of IL-18 with IL-18BP, free IL-18 ELISA (IL-18BP capture). It counts as binding. More on the design: purchased. The settings on record: read-out: KD between human IL-18 and IL-18BP by titration. As to the method:
Microplate wells are coated with an appropriate volume phosphate buffer saline solution containing recombinant human IL-18BP (r-hIL-18BP) as shown in SEQ ID NO 7, and less than 30% of N-terminal and/or C-terminal deletion variants of IL-18BP. A description of the r-hIL-18BP is provided in section 6.6.1 below. A description of the purification protocol is provided in section 6.6.2. Plates are incubated for a period of time at 4° C. and then stabilized with a blocking buffer containing bovine serum albumin or other appropriate blocking agents. Once the reaction is finished, microplates are sealed and stored at 4° C. until used for detection of free IL-18. Microplates can also be dried in a stabilizing solution allowing storage at room temperature and then be reconstituted by hydration when needed for assay.
As an example, for a final reaction volume of 100 μl, dispense first 80 μl of biotin/antibody conjugate. Samples or biological fluids containing free IL-18 are tested with the IL-18BP coated microplates. After that, 20 μl sample volume containing biological fluid or standard is dispensed per microplate well. […] The resulting reactions are then monitored with a microplate reader at an appropriate nanometer wavelength for absorbance or fluorescence of the produced reagent. […]
• KD was calculated based on the following formula: KD=[free IL-18]×[free IL-18BP]/[IL-18/IL-18BP complex] […]

The mark [4] stands for this setting: 3 and 10 mg/kg s.c., compared to positive control dexamethasone.

“And” between values parts separate entries of the source, which are not always exact repeats. Identical values can stand only once. Like-named read-outs stand apart in the source and are kept apart here.

B1: IL-18BP: soluble glycoprotein of 164 amino acids produced from a Chinese Hamster Ovary cell line; isoform a, SEQ ID NO 7 (protein, listed as Homo sapiens)
chain: TPVSQTTTAATASVRSTKDPCPSQPPVFPAAKQCPALEVTWPEVEVPLNGTLSLSCVACSRFPNFSILYWLGNGSFIEHLPGRLWEGSTSRERGSTGTQLCKALVLEQLTPALHSTNFSCVLVDPEQVVQRHVVLAQLWAGLRATLPPTQEALPSSHSSPQQQG
modifications: CHO glycosylation; MISC_FEATURE - Human interleukin-18 binding protein isoform a
Consider B1, for which the Kd with IL-18 [1] is 0.16 nM; in the data set with IL-18 [2] (BIAcore measurements, read-out: KD reported in the literature (Kim et al 2000)), 0.4 nM; with IL-18 [2] (IL-18-IL-18BP complex, stoichiometry 1:1, read-out: Dissociation constant KD as calculated by Kim et al 2000), 0.4 nM; in the data set with IL-18 [3] (PBS supplemented by 5% BSA diluent), 0.035 nM; with IL-18 [3] (Serum diluent), 0.05 nM and ~0.05 nM. Besides, the “exacerbated inflammation inhibition (total cell infiltration)” value in the data set on C57BL/6J mice (10 mg/kg s.c.) is “clear and statistically relevant efficacy”. The “neutrophil infiltration in the lung airway space” value in the data set on C57BL/6J mice (10 mg/kg s.c.) was “best statistical efficacy”; in the data set on C57BL/6J mice (setting [4]), “statistically valuable efficacy”; in the data set on C57BL/6J mice (IL-18BP s.c., day 5), “inhibited”. Also, the “total cell infiltration in the lung airway space” value in the data set with C57BL/6J mice (setting [4]) is reported as “statistically valuable efficacy”; in the data set with C57BL/6J mice (IL-18BP s.c., day 5), “significant mitigation of total cell infiltration”. The weight loss with C57BL/6J mice (3 and 10 mg/kg s.c., large majority of mice) is 6-7%. Further, in the data set on C57BL/6J mice (IL-18BP s.c.), the tolerability entry is listed as “well tolerated”. Moreover, the weight loss mitigation entry in the data set with C57BL/6J mice (IL-18BP s.c., Students t-test and ANOVA) is “mitigated by IL-18BP even though both Students t-test and ANOVA statistical analyses were not significant”.
